Data as given in publication PMC4187570, “Clathrin complexes with the inhibitor kappa B kinase signalosome: imaging the interactome” (Physiological Reports, 2014).

T1: IKKα (human (endogenous in A549), UniProt O15111 1-745)
T1 construct: also called CHUK; source: endogenous, A549 cells (M-PER lysate for the pull-down; fixed, permeabilised cells for FRET)
T1 sequence (looked up): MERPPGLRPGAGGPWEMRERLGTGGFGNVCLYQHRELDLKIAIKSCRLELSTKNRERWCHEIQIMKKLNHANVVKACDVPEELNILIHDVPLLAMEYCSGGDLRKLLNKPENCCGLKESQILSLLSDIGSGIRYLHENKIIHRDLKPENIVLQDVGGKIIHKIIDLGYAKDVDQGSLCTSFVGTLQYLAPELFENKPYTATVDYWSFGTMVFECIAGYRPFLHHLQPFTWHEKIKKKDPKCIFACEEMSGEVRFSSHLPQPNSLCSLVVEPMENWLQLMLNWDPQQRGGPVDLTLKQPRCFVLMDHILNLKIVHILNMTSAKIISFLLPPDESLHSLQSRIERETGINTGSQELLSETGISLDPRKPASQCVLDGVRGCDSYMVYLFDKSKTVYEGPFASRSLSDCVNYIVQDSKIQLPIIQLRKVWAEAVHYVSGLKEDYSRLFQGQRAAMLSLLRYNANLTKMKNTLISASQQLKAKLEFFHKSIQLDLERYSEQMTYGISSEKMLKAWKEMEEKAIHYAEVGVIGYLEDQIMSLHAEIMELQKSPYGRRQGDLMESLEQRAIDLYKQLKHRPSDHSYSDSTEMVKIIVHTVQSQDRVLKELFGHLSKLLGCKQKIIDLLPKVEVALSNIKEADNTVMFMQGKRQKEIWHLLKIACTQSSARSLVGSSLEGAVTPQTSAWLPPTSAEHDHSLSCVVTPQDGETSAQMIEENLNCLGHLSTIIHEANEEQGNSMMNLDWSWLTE

B1: IKKβ (natural protein, human (endogenous in A549), UniProt O14920 1-756, looked up)
chain: MSWSPSLTTQTCGAWEMKERLGTGGFGNVIRWHNQETGEQIAIKQCRQELSPRNRERWCLEIQIMRRLTHPNVVAARDVPEGMQNLAPNDLPLLAMEYCQGGDLRKYLNQFENCCGLREGAILTLLSDIASALRYLHENRIIHRDLKPENIVLQQGEQRLIHKIIDLGYAKELDQGSLCTSFVGTLQYLAPELLEQQKYTVTVDYWSFGTLAFECITGFRPFLPNWQPVQWHSKVRQKSEVDIVVSEDLNGTVKFSSSLPYPNNLNSVLAERLEKWLQLMLMWHPRQRGTDPTYGPNGCFKALDDILNLKLVHILNMVTGTIHTYPVTEDESLQSLKARIQQDTGIPEEDQELLQEAGLALIPDKPATQCISDGKLNEGHTLDMDLVFLFDNSKITYETQISPRPQPESVSCILQEPKRNLAFFQLRKVWGQVWHSIQTLKEDCNRLQQGQRAAMMNLLRNNSCLSKMKNSMASMSQQLKAKLDFFKTSIQIDLEKYSEQTEFGITSDKLLLAWREMEQAVELCGRENEVKLLVERMMALQTDIVDLQRSPMGRKQGGTLDDLEEQARELYRRLREKPRDQRTEGDSQEMVRLLLQAIQSFEKKVRVIYTQLSKTVVCKQKALELLPKVEEVVSLMNEDEKTVVRLQEKRQKELWNLLKIACSKVRGPVSGSPDSMNASRLSQPGQLMSQPSTASNSLPEPAKKSEELVAEAHNLCTLLENAIQDTVREQDQSFTALDWSWLQTEEEEHSCLEQAS
notes: also called IKBKB; source: endogenous, A549 cells (M-PER lysate for the pull-down; fixed, permeabilised cells for FRET)

Legend:
Assay in all cases: FRET or BRET; corrected FRET between fluorophore-labelled secondary antibodies (Alexa 488:Cy3, Cy3:Cy5) on primary antibodies, indirect immunofluorescence of acetone/methanol-fixed resting A549 cells, deconvolved Z-stacks; epitopes within about 30 nm; FRETN = cFRET normalised to the acceptor's emission, mean of four sets of experiments
[1] = target: IKKβ (human (endogenous in A549)) (UniProt O14920)
[2] = target: IKKα (human (endogenous in A549)) (UniProt O15111)
[3] = target: T1, IKKα; details: partners not purified
[4] = target: B1; details: partners not purified

Row | Molecule | normalized FRET (FRETN) [1] | normalized FRET (FRETN) [2] | normalized FRET (FRETN) [3] | normalized FRET (FRETN) [4]
1 | heat-shock protein-90 (from UniProt P07900 1-732) (natural protein) | 0.632 | 0.3 | – | –
2 | B1 | – | – | 0.362 | –
3 | clathrin heavy chain 1 (natural protein, human (endogenous in A549), UniProt Q00610 1-1675, looked up, clathrin heavy chain 1 (CLTC), human, SwissProt entry name CLH1_HUMAN; also called CHC; CLH1; source: endogenous, A549 cells (M-PER lysate for the pull-down; fixed, permeabilised cells for FRET)) MAQILPIRFQEHLQLQNLGINPANIGFSTLTMESDKFICIREKVGEQAQVVIIDMNDPSNPIRRPISADSAIMNPASKVIALKAGKTLQIFNIEMKSKMKAHTMTDDVTFWKWISLNTVALVTDNAVYHWSMEGESQPVKMFDRHSSLAGCQIINYRTDAKQKWLLLTGISAQQNRVVGAMQLYSVDRKVSQPIEGHAASFAQFKMEGNAEESTLFCFAVRGQAGGKLHIIEVGTPPTGNQPFPKKAVDVFFPPEAQNDFPVAMQISEKHDVVFLITKYGYIHLYDLETGTCIYMNRISGETIFVTAPHEATAGIIGVNRKGQVLSVCVEEENIIPYITNVLQNPDLALRMAVRNNLAGAEELFARKFNALFAQGNYSEAAKVAANAPKGILRTPDTIRRFQSVPAQPGQTSPLLQYFGILLDQGQLNKYESLELCRPVLQQGRKQLLEKWLKEDKLECSEELGDLVKSVDPTLALSVYLRANVPNKVIQCFAETGQVQKIVLYAKKVGYTPDWIFLLRNVMRISPDQGQQFAQMLVQDEEPLADITQIVDVFMEYNLIQQCTAFLLDALKNNRPSEGPLQTRLLEMNLMHAPQVADAILGNQMFTHYDRAHIAQLCEKAGLLQRALEHFTDLYDIKRAVVHTHLLNPEWLVNYFGSLSVEDSLECLRAMLSANIRQNLQICVQVASKYHEQLSTQSLIELFESFKSFEGLFYFLGSIVNFSQDPDVHFKYIQAACKTGQIKEVERICRESNCYDPERVKNFLKEAKLTDQLPLIIVCDRFDFVHDLVLYLYRNNLQKYIEIYVQKVNPSRLPVVIGGLLDVDCSEDVIKNLILVVRGQFSTDELVAEVEKRNRLKLLLPWLEARIHEGCEEPATHNALAKIYIDSNNNPERFLRENPYYDSRVVGKYCEKRDPHLACVAYERGQCDLELINVCNENSLFKSLSRYLVRRKDPELWGSVLLESNPYRRPLIDQVVQTALSETQDPEEVSVTVKAFMTADLPNELIELLEKIVLDNSVFSEHRNLQNLLILTAIKADRTRVMEYINRLDNYDAPDIANIAISNELFEEAFAIFRKFDVNTSAVQVLIEHIGNLDRAYEFAERCNEPAVWSQLAKAQLQKGMVKEAIDSYIKADDPSSYMEVVQAANTSGNWEELVKYLQMARKKARESYVETELIFALAKTNRLAELEEFINGPNNAHIQQVGDRCYDEKMYDAAKLLYNNVSNFGRLASTLVHLGEYQAAVDGARKANSTRTWKEVCFACVDGKEFRLAQMCGLHIVVHADELEELINYYQDRGYFEELITMLEAALGLERAHMGMFTELAILYSKFKPQKMREHLELFWSRVNIPKVLRAAEQAHLWAELVFLYDKYEEYDNAIITMMNHPTDAWKEGQFKDIITKVANVELYYRAIQFYLEFKPLLLNDLLMVLSPRLDHTRAVNYFSKVKQLPLVKPYLRSVQNHNNKSVNESLNNLFITEEDYQALRTSIDAYDNFDNISLAQRLEKHELIEFRRIAAYLFKGNNRWKQSVELCKKDSLYKDAMQYASESKDTELAEELLQWFLQEEKRECFGACLFTCYDLLRPDVVLETAWRHNIMDFAMPYFIQVMKEYLTKVDKLDASESLRKEEEQATETQPIVYGQPQLMLTAGPSVAVPPQAPFGYGYTAPPYGQPQPGFGYSM | – | – | 0.7 | 0.522
